The results in this text go back to patent publication US20130216549A1.

The target in the test is recombinant human IP-10 (Peprotech) (human) (UniProt P02778). Nature of the test: cell-based or functional assay.
recombinant human IP-10 (Peprotech) (human), sequence (P02778 22-98 limits assumed): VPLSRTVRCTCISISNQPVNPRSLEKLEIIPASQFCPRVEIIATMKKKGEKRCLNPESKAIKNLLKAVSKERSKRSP

B1: CC21R3P5_C5 (scFv format) (scFv, part only; not given: scFv linker, part only)
scFv, part: QVQLVQSGGGVVQPGRSLRLSCAASGFTFSTYGMHWVRQAPGKGLEWVAVISYDGGTKYYADSVKGRFTISRDNSMKTLYLQMNSLRTEDTAVYYCAKDLGDLPPGLDYWGRGTMVTVSSCHEMICALLYSYNTHESIZEDSYELTQPPSVSVALGQTATITCGGSSIESKSVHWYQEKPGQAPVLVIYKDSNRPSVIPERFSGSNSGNTATLTIGRAQAGDEADYYCQVWDSSTGVVFGGGTKLTVL
In the case of B1, the Calcium flux IC50 (nM); 10 nM hIP-10 came out at 89 nM and the Chemotaxis IC50 (nM); 1 nM hIP-10 was determined as 90 nM.
